Measurements: article PMC3929611, “Generation of Recombinant Antibodies to Rat GABAA Receptor Subunits by Affinity Selection on Synthetic Peptides” (PLoS ONE, 2014)
Primed or numbered codes have the meaning given here. Ends that are not written are not given here. * marks the point of attachment. Biotin = O=C1N[C@H]2[C@H](CS[C@H]2CCCCC(=O)*)N1; FITC′ = fluorescein isothiocyanate

How the values were obtained:
[1] = biological target: T1, FITC-labeled β2 peptide (Rattus norvegicus (paper: rat/human)); experiment: fluorescence polarisation; 6 µM FITC-α1 peptide or 4 µM FITC-β2 peptide with varying scFv (0-35 µM; G11 0-10 µM) or A10 scFv-Fc (0-1 µM) in PBS + 200 mM imidazole, overnight at 4°C or 2 h at RT; details: both partners purified
T1 construct: GABAA receptor subunit β2, rat/human, residues 1-19; also called FITC-conjugated target peptide (β2); source: synthetic peptide, HPLC purified
T1 chain: {FITC′}-MWRVRKRGYFGIWSFPLII

[2] = biological target: T2, α1β2γ2 GABAA receptor expressed in Xenopus laevis oocytes (rat α1, rat β2 and human γ2 subunit sequences) (Rattus norvegicus (alpha1, beta2); Homo …, UniProt P62813;P63138;P18507); experiment: immunostaining of cells or tissue; Xenopus oocytes expressing α1β2γ2 GABAA receptors or non-expressing, blocked with 10% fetal bovine serum, incubated with scFv overnight at 16°C, detected with FITC-conjugated M2 anti-Flag, confocal microscopy; details: one partner purified
T2 construct: GABAA receptor subunit α1, rat; GABAA receptor subunit β2, rat; GABAA receptor subunit γ2, human; also called intact GABAA receptor; GABAA receptors heterologously expressed by Xenopus laevis oocytes; source: Xenopus laevis oocytes injected with mRNA of each subunit, on the oocyte surface; copies: + +

[3] = biological target: T3, biotinylated β2 peptide (GABAA receptor β2 subunit peptide) (Rattus norvegicus (paper: rat/human), biotin at the N-terminus; C-terminal amide); experiment: SRU BIND Reader (label-free plate-based biosensor); biotinylated peptides (10 µg/mL) captured on streptavidin-coated BIND plates, blocked with PBST + 5% BSA, scFvs (0.008-17.5 µM) added in elution buffer, 1 h at RT; shift of peak wavelength against concentration; details: both partners purified
T3 construct: Serine-Glycine-Serine linker between the N-terminal biotin and the peptide; GABAA receptor subunit β2, rat/human, residues 1-19; also called beta 2; source: synthetic peptide
T3 chain: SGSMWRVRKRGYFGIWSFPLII

[4] = biological target: T4, FITC-labeled α1 peptide (Rattus norvegicus); experiment: fluorescence polarisation; 6 µM FITC-α1 peptide or 4 µM FITC-β2 peptide with varying scFv (0-35 µM; G11 0-10 µM) or A10 scFv-Fc (0-1 µM) in PBS + 200 mM imidazole, overnight at 4°C or 2 h at RT; details: both partners purified
T4 construct: GABAA receptor subunit α1, rat, residues 1-15; also called FITC-conjugated target peptide (α1); source: synthetic peptide, HPLC purified
T4 chain: {FITC′}-QPSQDELKDNTTVFT

[5] = biological target: T5, biotinylated α1 peptide (GABAA receptor α1 subunit peptide) (Rattus norvegicus, SMILES …); experiment: SRU BIND Reader (label-free plate-based biosensor); biotinylated peptides (10 µg/mL) captured on streptavidin-coated BIND plates, blocked with PBST + 5% BSA, scFvs (0.008-17.5 µM) added in elution buffer, 1 h at RT; shift of peak wavelength against concentration; details: both partners purified
T5 construct: Serine-Glycine-Serine linker between the N-terminal biotin and the peptide; GABAA receptor subunit α1, rat, residues 1-15; also called alpha 1; source: synthetic peptide
T5 chain: Biotin-SGSQPSQDELKDNTTVFT-NH2

[6] = biological target: T6, MBP-α1 peptide fusion protein (Rattus norvegicus); experiment: far-Western, overlay or dot blot; dot blot; 1 µg to 0.0075 µg MBP-fusion protein adsorbed on PVDF membrane, about 10 nM A10 scFv or A10 scFv-Fc overnight at 4°C, detected with α-Flag-800CW; details: both partners purified
T6 construct: GABAA receptor subunit α1, rat, residues 1-15, inserted at the C-terminus of the MBP gene in pAT224; also called MBP-fusion protein; source: E. coli, purified (His60 Ni Superflow resin); not shown: MBP, N-terminal, kept
T6 chain: QPSQDELKDNTTVFT

[7] = biological target: T7, GABAA receptor α1 subunit, native, in mouse retina (Mus musculus C57BL/6J, UniProt P62812); experiment: immunostaining of cells or tissue; 16 µm cryosections of paraformaldehyde-fixed mouse retina, biotinylated scFv, detected with Cy5-conjugated streptavidin, confocal microscopy; details: one partner purified
T7 construct: GABAA receptor subunit α1, mouse, within native receptors of the retina; Tissue fixed in 4% paraformaldehyde; also called native GABAA receptors in the mouse retina; source: endogenous, C57BL/6J mouse retina, fixed cryosections
T7 sequence (P62812 28-455): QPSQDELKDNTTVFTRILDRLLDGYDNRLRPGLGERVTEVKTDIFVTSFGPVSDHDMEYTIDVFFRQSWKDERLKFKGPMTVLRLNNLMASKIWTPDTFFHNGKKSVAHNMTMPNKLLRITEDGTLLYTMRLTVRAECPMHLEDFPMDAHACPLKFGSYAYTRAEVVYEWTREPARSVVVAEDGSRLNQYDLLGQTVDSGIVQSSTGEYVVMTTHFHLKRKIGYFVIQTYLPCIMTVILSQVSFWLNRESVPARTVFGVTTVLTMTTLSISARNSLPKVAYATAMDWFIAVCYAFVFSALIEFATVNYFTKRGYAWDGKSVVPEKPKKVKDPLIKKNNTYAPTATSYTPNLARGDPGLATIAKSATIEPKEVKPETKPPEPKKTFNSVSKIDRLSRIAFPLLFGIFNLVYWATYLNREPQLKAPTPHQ

T2 sequence (P62813 28-455, chain 1 of 3): as the sequence (P62812 28-455) above
T2 sequence (P63138 26-474, chain 2 of 3): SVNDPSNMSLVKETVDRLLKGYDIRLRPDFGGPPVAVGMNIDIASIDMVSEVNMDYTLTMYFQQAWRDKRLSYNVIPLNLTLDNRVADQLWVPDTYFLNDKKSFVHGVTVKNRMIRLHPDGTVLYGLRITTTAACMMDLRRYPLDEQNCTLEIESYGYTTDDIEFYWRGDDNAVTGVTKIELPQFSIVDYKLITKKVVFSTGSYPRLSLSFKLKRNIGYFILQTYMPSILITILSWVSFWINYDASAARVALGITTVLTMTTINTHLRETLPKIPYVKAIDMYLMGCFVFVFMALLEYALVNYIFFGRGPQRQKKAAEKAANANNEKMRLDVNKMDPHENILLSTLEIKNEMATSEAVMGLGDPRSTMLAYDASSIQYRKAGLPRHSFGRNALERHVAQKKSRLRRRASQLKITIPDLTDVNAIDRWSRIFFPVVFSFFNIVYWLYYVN
T2 sequence (P18507 40-475, chain 3 of 3): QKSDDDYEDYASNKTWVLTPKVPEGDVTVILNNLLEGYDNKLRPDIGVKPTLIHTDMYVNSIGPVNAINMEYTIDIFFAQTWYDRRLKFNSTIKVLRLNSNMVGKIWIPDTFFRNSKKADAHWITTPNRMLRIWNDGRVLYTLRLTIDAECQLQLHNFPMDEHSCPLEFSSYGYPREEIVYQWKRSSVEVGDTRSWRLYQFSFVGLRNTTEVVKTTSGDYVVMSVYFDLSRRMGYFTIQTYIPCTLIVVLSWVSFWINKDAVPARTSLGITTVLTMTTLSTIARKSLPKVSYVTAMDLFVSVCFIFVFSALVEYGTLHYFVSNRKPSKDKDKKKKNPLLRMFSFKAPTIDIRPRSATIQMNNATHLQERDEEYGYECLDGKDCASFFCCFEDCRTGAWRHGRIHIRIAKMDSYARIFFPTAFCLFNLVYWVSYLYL

B1: G8 scFv (anti-β2 subunit scFv), soluble protein (scFv, V domains shown)
VH: EVQLVQSGAEVKKPGATVKISCKVSGYTFTDYYMHWVQQAPGKGLEWMGLVDPEDGETIYAEKFQGRVTITADTSTDTAYMELSSLRSEDTAVYYCATTPPHDYYDSSGLDYWGQGTLVTVSS
VL: DIQMTQSPSSVSASVGDRVTITCRASQGINRWLAWYQQKPGKAPKLLIYAASNLQSGVPSRFSGSGSGTDFSLTISSLQPEDFATYYCQQSYSPPSTFGGGTKLEIK
notes: human scFv from a naive phage-display library, order VH-linker-VL; source: P. pastoris X33, secreted, purified (Ni-NTA)
With B1 the Kd [1] was 970 nM, the binding result [2] was “binds” and the Kd [3] was 1600 nM.

B2: A10 scFv (anti-α1 subunit-specific scFv), soluble protein (scFv, V domains shown)
VH: EVQLVQSGAEVKKPGASVKVSCKASGYTFTSYYMHWVRQAPGQGLEWMGIINPSGGSTSYAQKFQGRVTMTRDTSTSTVYMELSSLRSEDTAVYYCARDGWGGSSFLDYWGQGTLVTVSS
VL: SYELTQPPSVSVSPGQTARITCSGDALPKKYAYWYQQKSGQAPVLVIYEDSKRPSGIPERFSGSSSGTMATLTISGAQVEDEADYYCYSKDNTGYQMVFGGGTKLTVL
notes: human scFv from a naive phage-display library, order VL-linker-VH; also called scFv A10; anti-α1 scFv; source: P. pastoris X33, secreted, purified (Ni-NTA)
For B2, the Kd [4] was 3500 nM, the binding result [2] was “binds” and the Kd [5] was 2400 nM.

B3: A10 scFv-Fc (dimeric scFv-Fc version of A10) (Fc fusion, human)
VH: B2 VH
VL: B2 VL
notes: as the scFv of m1; order VL-linker-VH; also called A10-Fc; scFv-Fc A10; source: FreeStyle 293F cells, transiently transfected, secreted, purified (His60 Ni Superflow resin); not shown: Fc (human IgG), C-terminal, kept; 3x Flag, C-terminal, kept
In the case of B3, the “fold increase in dot-blot sensitivity over the scFv” value [6] is reported as ~10 fold and the Kd [4] is reported as 26 nM.

B4: A10 scFv, biotinylated in vitro (scFv, V domains shown)
VH: B2 VH
VL: B2 VL
notes: as the scFv of m1; order VL-linker-VH; The same protein as m1, chemically biotinylated for staining of retinal cryosections; also called α1-specific scFv; source: P. pastoris X33, secreted, purified (Ni-NTA)
B4: binds [7].
